Where “and” joins values, the source holds several entries; their conditions need not be identical. Identical values can stand only once.
Key:
[1] = biological target: T1, SARS-CoV-2-S1 (RBD)-His protein (Trenzyme) (SARS-CoV-2, UniProt P0DTC2 319-541); assay: competition ELISA, RBD binding to coated ACE2
[2] = biological target: T1, SARS-CoV-2-S1 (RBD)-His protein …; assay: direct ELISA on coated RBD-His
[3] = biological target: T1, SARS-CoV-2-S1 (RBD)-His protein …
[4] = biological target: 2019-nCov Spike protein (S1 mFC tag) (SARS-CoV-2, UniProt P0DTC2 16-685)
[5] = biological target: T1, SARS-CoV-2-S1 (RBD)-His protein …; assay: direct ELISA on coated RBD-His (FIG. 1D)

B1: NI-607.427_C5 IgG4 S228P (antibody, V domains shown)
VH: QVQLVQSGAEVKKPGASVKVSCKASGYTFTSYGISWVRQAPGQGLEWMGWISAYNGNTNYAQKLQGRVTMTTDTSTSTAYMELRSLRSDDTAVYYCARDNRAGWDQLDYWGQGTLVTVSS
VL: not shown
B1 was tested, and the IC50 [1] was ~2.79 µg/mL and ~18.6 nM.

B2: NI-607.532_C11 IgG4 S228P (antibody, V domains shown)
VH: QVQLVESGGGLIQPGGSLRLSCAASGFTVSSNYMSWVRQAPGKGLEWVSVIYSGGSTYYADSVKGRFTISRDNSKNTLFLQMNSLRAEDTAVYYCARDLQYYGMDVWGQGTTVTVSS
VL: DIQMTQSPSFLSASVGDRVTITCRASQGISSYLAWYQQKPGKAPKLLIYAASTLQSGVPSRFSGSGSGTEFTLTISSLQPEDFATYYCQQLDSYPPRDTFGQGTKVEIK
B2 was tested, and the IC50 [1] was ~2.32 µg/mL and ~15.4 nM.

B3: NI-607.531_C8 IgG4 S228P (antibody, V domains shown)
VH: EVQLVESGGGVVQPGRSLRLSCTASGFTFSFYSVHWVRQAPGKGLEWVAVISYDGSTKYYADSVKGRFTISRDNSKNTLYLQMDSLRTEDTAVYYCASPPISPIPAAGTPLAYWGQGTLVTVSS
VL: not shown
With B3 the EC50 [2] was about 8.5 pM, the “IC50 (read off the curve)” value [3] was about 0.03 µg/mL and the IC50 [1] was about 0.191 µg/mL.

B4: NI-607.532_F9 IgG4 S228P (antibody, V domains shown)
VH: EVQLVESGGNLIQPGGSLRLSCAASGFTVSSNYMSWVRQAPGKGLEWVSVIYSGGSTYYADSVKGRFTISRDNSRNTLYLQMNSLRAEDTAVYFCARDRVVRGVRGNGMDVWGQGTTVTVSS
VL: AIRMTQSPSSLSASVGDRVTITCQASQDINIYLNWYQQRPGKAPKLLIYDASNLETGVPSRFSGSGSGTDFTFTISSLQPEDIATYYCHQYDNLPRTFGQGTKVDIK
B4 was tested, and the IC50 [1] was ~1.09 µg/mL and ~7.3 nM.

B5: NI-607.649_B11 (antibody, V domains shown)
VH: QVQLVQSGAEVKKPGSSVKVSCKASGGTFSNYAISWVRQAPGQGLEWMGGIIPIFGTANYAQKFQGRVTITADESTSTAYMELSSLRSEDTAVYYCAGDRWYYDSSGYPTPDEYFQHWGQGTQVTVSS
VL: QSVLTQPPSVSGAPGQRVTISCTGSSSNIGAGYDVHWYQQLPGTAPKLLIYGNSNRPSGVPDRFSGSKSGTSASLAITGLQAEDEADYYCQSYDSSLSGVVFGGGTKLTVL
In the case of B5, the “EC50 (read off the curve)” value [4] is reported as about 500 pM.

B6: NI-607.649_B11 IgG4 S228P (antibody, V domains shown)
VH: B5 VH
VL: B5 VL
With B6 the EC50 [5] was about 8.5 pM, the “IC50 (read off the curve)” value [3] was about 0.05 µg/mL and the IC50 [1] was about 0.047 µg/mL.

— patent US20230242624A1 (NEURIMMUNE, published 2023)
